The numbers were not newly measured in publication PMC12525431, “Hsp70 Peptides Induce TREM-1-Dependent and TREM-1-Independent Activation of Cytotoxic Lymphocytes” (International Journal of Molecular Sciences, 2025), which cites them from elsewhere.

The target in this data set is T1, TREM-1 (Homo sapiens, UniProt Q9NP99).
T1 construct: causes dissociation of the TREM-1 exocellular domain; made in house
Particulars: ref [30],[31],[32],[33].

T1 sequence (Q9NP99 21-205 limits assumed): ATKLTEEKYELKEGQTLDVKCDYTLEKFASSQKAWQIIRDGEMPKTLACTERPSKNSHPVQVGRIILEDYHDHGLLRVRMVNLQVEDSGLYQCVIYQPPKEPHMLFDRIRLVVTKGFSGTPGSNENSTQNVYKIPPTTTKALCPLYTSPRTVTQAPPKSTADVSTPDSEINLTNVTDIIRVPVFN

B1: eCIRP: RNA-binding protein (eCIRP), TREM-1 ligand (protein, UniProt Q14011 1-172, looked up)
Cold-inducible RNA-binding …: MASDEGKLFVGGLSFDTNEQSLEQVFSKYGQISEVVVVKDRETQRSRGFGFVTFENIDDAKDAMMAMNGKSVDGRQIRVDQAGKSSDNRSRGYRGGSAGGRGFFRGGRGRGRGFSRGGGDRGYGGNRFESRSGGYGGSRDYYSSRSQSGGYSDRSSGGSYRDSYDSYATHNE
For the molecule B1, the TREM-1 ligand entry is recorded as “TREM-1 ligands”.
